Earlier results as cited in PMC5659385.

Biological target: concanavalin A (Canavalia ensiformis) (UniProt P02866)
UniProt P02866, sequence (P02866 30-148, chain 1 of 2): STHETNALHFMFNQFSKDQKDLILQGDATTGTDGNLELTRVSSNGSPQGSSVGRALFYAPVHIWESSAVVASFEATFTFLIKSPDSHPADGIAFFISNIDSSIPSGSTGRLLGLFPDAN
UniProt P02866, sequence (P02866 164-281, chain 2 of 2): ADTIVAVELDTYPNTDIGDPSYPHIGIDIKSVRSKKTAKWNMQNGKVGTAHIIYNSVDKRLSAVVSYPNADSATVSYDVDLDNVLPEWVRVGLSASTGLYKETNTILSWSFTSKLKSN

Substance: glucose oxidase (from UniProt P13006)
- Kd: 1.64 nM
